According to US20250381289A1 (Genmab, published 2025):

Experiments:
[1] = biological target: T1, EGFR on EGFR and cMET co-expressed tumor cell lines (UniProt P00533 25-1210, limits assumed); assay: flow cytometry, SNU-5 cells (co-express EGFR and cMET; both arms contribute)
T1 construct: whole, on cells

[2] = biological target: T2, cMET on EGFR and cMET co-expressed tumor cell lines (UniProt P08581 25-1390, limits assumed); assay: as above
T2 construct: whole, on cells
Target sequence in this assay (P08581 25-1390 limits assumed): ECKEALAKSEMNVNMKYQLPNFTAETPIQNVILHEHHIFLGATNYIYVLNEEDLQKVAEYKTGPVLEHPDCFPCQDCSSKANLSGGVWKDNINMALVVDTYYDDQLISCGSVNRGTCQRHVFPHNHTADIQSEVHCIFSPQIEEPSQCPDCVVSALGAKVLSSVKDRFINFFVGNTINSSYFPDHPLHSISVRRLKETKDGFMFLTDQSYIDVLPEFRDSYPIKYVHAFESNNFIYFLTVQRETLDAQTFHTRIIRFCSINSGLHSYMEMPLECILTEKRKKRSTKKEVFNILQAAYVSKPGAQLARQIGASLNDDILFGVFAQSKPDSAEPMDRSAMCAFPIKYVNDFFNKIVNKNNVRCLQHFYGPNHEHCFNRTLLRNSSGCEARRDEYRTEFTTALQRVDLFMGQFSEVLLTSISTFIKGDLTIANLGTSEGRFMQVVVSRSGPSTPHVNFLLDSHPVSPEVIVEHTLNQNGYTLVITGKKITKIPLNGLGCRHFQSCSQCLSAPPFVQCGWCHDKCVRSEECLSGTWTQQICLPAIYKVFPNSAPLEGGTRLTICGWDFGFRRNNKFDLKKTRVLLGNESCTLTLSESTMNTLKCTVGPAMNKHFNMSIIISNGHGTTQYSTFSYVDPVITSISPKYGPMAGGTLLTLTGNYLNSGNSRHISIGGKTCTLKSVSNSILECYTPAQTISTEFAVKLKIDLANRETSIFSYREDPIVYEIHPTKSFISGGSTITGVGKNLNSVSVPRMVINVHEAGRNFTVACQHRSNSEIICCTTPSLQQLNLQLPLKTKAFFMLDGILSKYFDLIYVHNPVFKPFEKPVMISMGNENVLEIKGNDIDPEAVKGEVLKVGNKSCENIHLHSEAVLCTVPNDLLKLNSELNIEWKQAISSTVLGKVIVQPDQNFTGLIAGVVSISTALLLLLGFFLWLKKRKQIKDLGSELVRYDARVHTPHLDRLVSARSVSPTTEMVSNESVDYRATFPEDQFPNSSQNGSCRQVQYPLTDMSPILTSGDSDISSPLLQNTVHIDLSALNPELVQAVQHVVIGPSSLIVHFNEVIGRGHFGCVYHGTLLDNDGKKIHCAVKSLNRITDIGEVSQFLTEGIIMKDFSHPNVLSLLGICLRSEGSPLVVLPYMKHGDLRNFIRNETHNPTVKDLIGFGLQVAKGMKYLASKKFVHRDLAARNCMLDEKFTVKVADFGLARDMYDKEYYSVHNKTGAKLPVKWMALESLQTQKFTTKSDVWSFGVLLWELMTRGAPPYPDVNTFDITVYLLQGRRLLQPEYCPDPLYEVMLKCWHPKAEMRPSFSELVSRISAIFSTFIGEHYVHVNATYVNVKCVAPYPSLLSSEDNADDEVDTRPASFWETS

[3] = biological target: T1, EGFR on EGFR and cMET co-expressed …; assay: flow cytometry, EBC-1 cells (co-express EGFR and cMET; both arms contribute)
[4] = biological target: T2, cMET on EGFR and cMET co-expressed …; assay: as above
[5] = biological target: T1, EGFR on EGFR and cMET co-expressed …; assay: flow cytometry on CAL-27 cells (co-express EGFR and cMET), PE anti-human Fc; signal of the whole bispecific, not resolved by arm
[6] = biological target: T2, cMET on EGFR and cMET co-expressed …; assay: as above
[7] = biological target: T1, EGFR on EGFR and cMET co-expressed …; assay: flow cytometry, A549 cells (co-express EGFR and cMET; both arms contribute)
[8] = biological target: T2, cMET on EGFR and cMET co-expressed …; assay: as above
[9] = biological target: T1, EGFR on EGFR and cMET co-expressed …; assay: flow cytometry on EBC-1 cells (co-express EGFR and cMET), PE anti-human Fc; signal of the whole bispecific, not resolved by arm
[10] = biological target: T2, cMET on EGFR and cMET co-expressed …; assay: as above
human EGFR-Fc = biological target: T3, human EGFR-Fc (human, UniProt P00533 25-645); assay: blocking ELISA: coated human EGFR-Fc, antibody titrated, then EGF-His (blocked ligand), anti-His-HRP
T3 construct: not shown: Fc part, not described

[11] = biological target: T1, EGFR on EGFR and cMET co-expressed …; assay: flow cytometry on SNU-5 cells (co-express EGFR and cMET), PE anti-human Fc; signal of the whole bispecific, not resolved by arm
[12] = biological target: T2, cMET on EGFR and cMET co-expressed …; assay: as above
Target sequence in this assay (P08581 25-1390 limits assumed): as above

[13] = biological target: T1, EGFR on EGFR and cMET co-expressed …; assay: flow cytometry, HCC-827 cells (co-express EGFR and cMET; both arms contribute)
[14] = biological target: T1, EGFR on EGFR and cMET co-expressed …; assay: flow cytometry, EBC-1 cells (co-express EGFR and cMET; both arms contribute); remark: listed apart in the source
[15] = biological target: T2, cMET on EGFR and cMET co-expressed …; assay: as above; remark: listed apart in the source
Human cMET = biological target: T4, Human cMET (human); assay: ELISA, coated human cMET, anti-human Fc-HRP
T4 construct: recombinant protein; also called human cMET recombinant protein

[16] = biological target: T1, EGFR on EGFR and cMET co-expressed …; assay: flow cytometry, MKN-45 cells (co-express EGFR and cMET; both arms contribute)
[17] = biological target: T2, cMET on EGFR and cMET co-expressed …; assay: as above
Target sequence in this assay (P08581 25-1390 limits assumed): as above

T4 sequence (P08581 whole entry): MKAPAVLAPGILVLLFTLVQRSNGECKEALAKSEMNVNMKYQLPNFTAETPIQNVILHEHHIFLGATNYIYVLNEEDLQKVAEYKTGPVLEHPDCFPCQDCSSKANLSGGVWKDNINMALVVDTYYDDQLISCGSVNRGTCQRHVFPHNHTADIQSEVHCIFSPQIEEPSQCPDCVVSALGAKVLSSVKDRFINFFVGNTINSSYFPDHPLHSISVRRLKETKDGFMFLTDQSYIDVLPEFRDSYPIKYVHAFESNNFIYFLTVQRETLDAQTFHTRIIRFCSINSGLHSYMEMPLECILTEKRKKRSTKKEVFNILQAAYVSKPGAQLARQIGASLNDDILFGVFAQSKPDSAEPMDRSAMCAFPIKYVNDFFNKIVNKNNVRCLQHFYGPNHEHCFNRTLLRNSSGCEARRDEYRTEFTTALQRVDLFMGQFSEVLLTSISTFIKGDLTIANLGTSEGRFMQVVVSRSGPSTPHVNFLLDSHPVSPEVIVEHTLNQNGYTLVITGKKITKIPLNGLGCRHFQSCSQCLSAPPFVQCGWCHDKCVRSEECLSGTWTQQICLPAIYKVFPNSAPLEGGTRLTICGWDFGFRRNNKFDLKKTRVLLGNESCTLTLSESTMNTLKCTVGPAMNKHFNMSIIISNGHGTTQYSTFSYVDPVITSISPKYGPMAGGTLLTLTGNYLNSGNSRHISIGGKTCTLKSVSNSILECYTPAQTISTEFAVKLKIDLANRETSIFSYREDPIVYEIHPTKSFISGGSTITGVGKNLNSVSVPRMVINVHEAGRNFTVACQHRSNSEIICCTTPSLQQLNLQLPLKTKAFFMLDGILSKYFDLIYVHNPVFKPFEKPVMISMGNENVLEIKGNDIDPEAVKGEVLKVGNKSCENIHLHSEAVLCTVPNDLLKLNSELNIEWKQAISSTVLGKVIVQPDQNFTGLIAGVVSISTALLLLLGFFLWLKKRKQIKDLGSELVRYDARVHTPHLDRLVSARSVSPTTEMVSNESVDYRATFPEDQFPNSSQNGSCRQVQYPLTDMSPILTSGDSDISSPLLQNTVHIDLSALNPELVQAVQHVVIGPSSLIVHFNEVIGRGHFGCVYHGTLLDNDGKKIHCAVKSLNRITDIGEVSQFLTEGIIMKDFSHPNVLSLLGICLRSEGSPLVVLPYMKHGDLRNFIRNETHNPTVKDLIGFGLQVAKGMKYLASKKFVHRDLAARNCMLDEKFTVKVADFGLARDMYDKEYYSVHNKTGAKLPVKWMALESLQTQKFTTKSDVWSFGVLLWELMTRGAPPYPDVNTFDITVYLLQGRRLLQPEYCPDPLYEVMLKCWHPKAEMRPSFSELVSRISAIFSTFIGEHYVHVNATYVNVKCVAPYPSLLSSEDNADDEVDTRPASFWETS

EC50 (read off the curve) [1]: ~2 nM
EC50 (read off the curve) [2]: ~2 nM
EC50 (read off the curve) [3]: ~1 nM
EC50 (read off the curve) [4]: ~1 nM
EC50 (read off the curve) [5]: ~3 nM
EC50 (read off the curve) [6]: ~3 nM
EC50 (read off the curve) [7]: ~1 nM
EC50 (read off the curve) [8]: ~1 nM
EC50 (read off the curve) [9]: ~2 nM
EC50 (read off the curve) [10]: ~2 nM
IC50 (read off the curve) (human EGFR-Fc): ~0.2 nM
EC50 (read off the curve) [11]: ~3 nM
EC50 (read off the curve) [12]: ~3 nM
EC50 (read off the curve) [13]: ~3 nM
EC50 (read off the curve) [14]: ~2 nM
EC50 (read off the curve) [15]: ~2 nM
EC50 (read off the curve) (Human cMET): ~1 nM
EC50 (read off the curve) [16]: ~0.5 nM
EC50 (read off the curve) [17]: ~0.5 nM
B1: Amivantamab (bispecific antibody, human IgG1, kappa)
heavy 1: not shown
light 1: not shown
heavy 2: not shown
light 2: DIQMTQSPSSVSASVGDRVTITCRASQGISNWLAWFQHKPGKAPKLLIYAASSLLSGVPSRFSGSGSGTDFTLTISSLQPEDFATYYCQQANSFPITFGQGTRLEIKRTVAAPSVFIFPPSDEQLKSGTASVVCLLNNFYPREAKVQWKVDNALQSGNSQESVTEQDSKDSTYSLSSTLTLSKADYEKHKVYACEVTHQGLSSPVTKSFNRGEC
notes: Bispecific positive control
